{"source": "paper doi:10.1101/2025.10.21.683802", "key": {"[1]": {"biological_target": "AP-bound β2AR dimer (construct PN1 with AP-7-168) (UniProt P07550)", "assay": "SEC; AP-bound dimer with nucleotide-free Gs; peak fractions on SDS-PAGE, ratio of β2AR to Gα bands estimated on gels"}, "[2]": {"biological_target": "β2-adrenergic receptor, construct PN1 (monomeric) (UniProt P07550)", "assay": "BLI; FLAG-tagged β2AR held through biotinylated anti-FLAG M1 Fab on SA tips with 10 μM Iso; Gs 30 nM to 10 μM with 10 μM GDP and 0.1% BSA; NH buffer, 0.01% LMNG, 0.001% CHS; 30°C; KD from equilibrium responses"}, "[3]": {"biological_target": "β2-adrenergic receptor, construct PN1 (monomeric) (UniProt P07550)", "assay": "BLI; as a14, with AP at 10 μM"}, "[4]": {"biological_target": "β2-adrenergic receptor, construct PN1 (monomeric β2AR) (human) (UniProt P07550)", "assay": "BLI; as a1, monomeric β2AR with 10 µM AP; 10 µM Iso; apparent kon and koff; KD from equilibrium responses"}}, "data": [{"substance": "heterotrimeric Gs (Gαsβ1γ2) (from UniProt P63092 1-394; P62873 1-340; P59768 1-71) (complex)", "values": [{"measurement": "stoichiometry N", "setting": "[1]", "value": "2 β2AR per Gα"}, {"measurement": "Kd", "setting": "[2]", "value": 960, "unit": "nM"}, {"measurement": "Kd", "setting": "[3]", "value": 1700, "unit": "nM"}, {"measurement": "Kd", "setting": "[4]", "value": 1710, "unit": "nM"}]}]}
